The values below come from the nanobody polyreactivity screen of Harvey et al. (2022).

A short description of this data set: yeast display, Sf9 membrane polyspecificity reagent, FACS + sequencing; frameworks hold sequencing errors. In short, it runs like this:
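A nanobody's polyreactivity label depends on the gate it was sorted from. Yeast display cells were stained with 10% biotinylated, detergent-solubilized Sf9 membrane reagent for 1 hour at 4 °C, enriched on streptavidin microbeads and sorted by FACS. The low and high (top ~1%) gates were set on anti-HA fluorescence for expression and streptavidin fluorescence for reagent binding.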
For the sequence “QVQLVETWGGLVQAGGTLRLSCAASGSIFSPYAMGWYRQAPGKERELVAAISRNGGTTYYADSVKGRFTISRDNAKNTVYLQMNSLKPEDTAVYYCARLYYTQKDSKTGYGYWGQGTQVTVSS”, the “polyreactivity (PSR sort gate)” value is listed as “high polyreactivity”.

Regarding “QVQLVEYVGGLVQAGGSLRLSCAASGRIFQYYARGWYRQAPGKERELVAAINSSGGRTYYADSVKGRFTISRDNAKNTVYLQMNSLKPEDTAVYDCNAVLSTRGMDYWGQGTQVTVSS”, the “polyreactivity (PSR sort gate)” value is reported as “high polyreactivity”.

“QVQLVEYWGALVQAGGTLRLSCAASGRIFGTNALAWNRQAPGKERELEATITRGGGNTYYADSVKGRFTISRDKAKYTVYLQMNSLKPEDTAVYYCAAKFHRFAWYSHYDDWGQGSQVTVSS”: the “polyreactivity (PSR sort gate)” value is “low polyreactivity”.

Turning to “QVQLVGSGGGLLQAGASLRLSCAASGRIFRAYAMGWYRQAPGKERELVAAISWRSGSTYYADSVKGRFTISRDNAKTTVYLQMNSLKPEDTAVYYCAAYTNRVVNGYGYWGQGTQVTVSS”, the “polyreactivity (PSR sort gate)” value was “high polyreactivity”.

For the sequence “QVQLVKSGGGLVQAGGSLRLSCAASGIIFTDYGMGWYRQAPGKERELVAVISRGGTTKYADSVKGRFTISRDNAKNTVYLQMNSLQPEDTAVYYCAARTWAGRWYGLDFWGQGTQVTVSS”, the “polyreactivity (PSR sort gate)” value is “high polyreactivity”.

Take “QVQLVKSGGGLVQAGGSLRLSCAASGSIFGYNTKGWYRQAPGKERELVATITYRGGSTYYADSVKGRFTISRDNAKNTVYLQMNRLKPEDTAVYYCARRVTRYPDTTWVSAGDYWGQGTQVTVSS”: the “polyreactivity (PSR sort gate)” value is recorded as “high polyreactivity”.

Consider “QVQLVKSGGGLVQAGGSLRLSCAASGSTFYNAMGWYRQAPGKERELVAAISIGGSTYYADSVKGRFTNSRDNAKNTVYLQMNSLKPEDTAVYYCNTETGPSPVPVYDTEFDSWGQGTQVTVSS”, for which the “polyreactivity (PSR sort gate)” value is recorded as “low polyreactivity”.

Take “QVQLVQAGGGLVQAGGILRLSCAASGFTFQEYAMGWYRQAPGKAREFVAAITYSGGSTYADSVKGRFTISRDNAKNTVYLQMNSLKPEDTAVYYCNAQVYYSVRGYPYGYYRNDYWGQGTQVTVSS”: the “polyreactivity (PSR sort gate)” value was “low polyreactivity”.

Regarding “QVQLVQSCRVLLQARGSHTLSCADSGTTFGINANGCYTHSPGKERELVAAITFISGSTNYADSVKGRFTISRDNAKNTVYLQMNSLKPEDTAVYYCAADSVYYAGYDVDYWGQGTQVTVSS”, the “polyreactivity (PSR sort gate)” value is recorded as “low polyreactivity”.

As for “QVQLVQSGGGLVQAGGRLRLSSAASGRTFEPNAMGWYRQAPGKERELVAAITNGGSTSYADSVKGRFTISRDNAKNSVYLQMNSLKPEDTAVYDFAGDLGRNLLHTYYYWGQGTQVTVSS”, the “polyreactivity (PSR sort gate)” value is given as “low polyreactivity”.

In the case of “QVQLVQSGGGLVQAGGSLRLICAASGRTFYGNAMGWYRQAPGKERELVAAISRSGGRTYYADSVKGRFTISRDNAKNTVYLQMISLKTEDTAVYYCAKDYYYPSHTYGYWGQGTQVTVST”, the “polyreactivity (PSR sort gate)” value is reported as “high polyreactivity”.

Regarding “QVQLVQSGGGLVQAGGSLRLISAASGSIFRYNAMGWYRHAPGKEREFVAAITRSGGSTYADSVKGRFTISRDNAKNTLYLQIHSLKPEDTAVYYCAATFKWYSHSKPRFDYWGHGTQVTVSS”, the “polyreactivity (PSR sort gate)” value is “low polyreactivity”.

Regarding “QVQLVQSGGGLVQAGGSLRLSCAASGFIIWDNAMGCYRQAPGKERELVAAISDSGGDTYYADSVKGRFTISRDNAKNTVYLQMNSLKPEDTAVYYCASDVELWVFRGDQYDYWGQGTQVTVSS”, the “polyreactivity (PSR sort gate)” value is “low polyreactivity”.

In the case of “QVQLVQSGGGLVQAGGSLRLSCAASGGTFQHNTMGWYRQAPGKEWQLVAAIRGSDGSTYYADSVKGRFTISRDNAKNTVYLQMNSLKPEDTAVYYCNRAYTASYIPGVGFWGQGTQVTVSS”, the “polyreactivity (PSR sort gate)” value is “high polyreactivity”.

Consider “QVQLVQSGGGLVQAGGSLRLSCAASGITFWGNAMGSYRQAPGKEREFIARINWSGGRTYYAESVKGRFTISRDNEKNNVYLQMNSLKPEDTAVYYCAATSLIYGYRTYDYWGQGTQVTVSS”, for which the “polyreactivity (PSR sort gate)” value is “high polyreactivity”.

Regarding “QVQLVQSGGGLVQAGGSLRLSCAASGRIFGSYAMGWSRQAPGKERELGAAISYSGGSTYYADSVKGRFTMSRDNAKNTVYLQMHSLKPEDTAVYYCNVDRYYGYFSVRGGYWGQGTQGTVSS”, the “polyreactivity (PSR sort gate)” value is reported as “low polyreactivity”.

Take “QVQLVQSGGGLVQAGGSLRLSCAASGRIFRPNAMGWYRQAPGKERELVAAISSGGSTYYADSVKGRFTISRDNAKNTVYFQMYSLKPEDTAVDYCAADRSNRPYYRQGYDYWGQGTQVTVSS”: the “polyreactivity (PSR sort gate)” value is “high polyreactivity”.

Regarding “QVQLVQSGGGLVQAGGSLRLSCAASGRIIGWYAMGWYRQAPGKERELVAAITWSGTSTYYADSVKGRFTISRDNAKNTVYLQMNSLKPEDTAVYYCAADSLPASAPTYYTTLESWGQGTQVTVSS”, the “polyreactivity (PSR sort gate)” value is reported as “low polyreactivity”.

In the case of “QVQLVQSGGGLVQAGGSLRLSCAASGSTNRYYAMGLYRQAPGKERELVAAITKSGGSTYYADSVKGRFTISRDNAKNTVYLQMNSLKPEDTAVVYCAAVRGWYSPALSEHDYWGQGTQVTVSS”, the “polyreactivity (PSR sort gate)” value is listed as “low polyreactivity”.

As to “QVQLVQSGGGLVQAGGSLRLSCADSGGTFRVYAMGSYRQAPGKERQLVASISWSSGITYYADSVKGRFTISRDNAKNTVYLQMNSLKPEDTAVYYCAAEGHVTYGAPGRLYRMGYWGQGTQVTVSS”, the “polyreactivity (PSR sort gate)” value was “low polyreactivity”.

For “QVQLVQSGGGLVQAGGSLSLSCAASGSTFARNTMGWYRQAPGKERELVAAISYSGVTTYYADSVKGRFPISRDNEKNTVYLQMNSLKPEDTAVYYCAKLPYRRVDYGYWGQGTQVTVSS”, the “polyreactivity (PSR sort gate)” value is given as “high polyreactivity”.

Consider “QVQLVQSGGGLVQAGGSLSLSCAASGSTFSTYAMGWYRQAPGKERELVATISKSGGSTYYSDSVKGRFTISRDNAKNTVYLQMNSLKPEDTAVYYCNARYQSRYFIYDYWGQGTQVTVSS”, for which the “polyreactivity (PSR sort gate)” value is “high polyreactivity”.

Turning to “QVQLVQSGGGLVQAGGTLRLTCAASGSTYAVYAMGWYRQAPGKERELVATIRGRGGSTYYADSVKGRFTISRDYAKNTVYLQMNSLKPEDTAVYYCAADSYPSLGKYDSWGQGTQVTVSS”, the “polyreactivity (PSR sort gate)” value is given as “high polyreactivity”.

For “QVQLVQSGGGLVQERGSLRLSCAASGRIFVKYTMGWSRQAPGKERELVAAIDFDTDSTYYADSVTGRFTISRDNAKNTVYLQMYSLKPEDTAVYYCATGYLYFTSYRYNYWGQGTQVTVSS”, the “polyreactivity (PSR sort gate)” value is “low polyreactivity”.

With “QVQLVQSRGGLVQAGGSLRLSCAASGRTFVYNAMGWYRPAPGKERELVAAIDGGGDRTYYADSVKGRFTISRDNAKNTVYLQMNSLKPEDTAVYYCARDPGDTYYYSYPEGDYWGLGTQVTVSS”, the “polyreactivity (PSR sort gate)” value is reported as “low polyreactivity”.

As for “QVQLVVSGGGLVQAGGSLRLSCAASGRIFVINAMGWYRQAPGNERELVAAITWIGGTTYYADSVKGRFTISRDNAKNTVYLQLNSLKREDTAVYYCARQRSYGRSSYSYGYDYWGQGTQVTVSS”, the “polyreactivity (PSR sort gate)” value is “high polyreactivity”.

For “QVQLVVSGGGLVQAGGSLRLSCAASGRTFPGNAMGGYRQAPGKERELVASINGRTTRTYYADSVKGRFTISRDNAKNTVYLQMNSLKPEDTAVYYCAADPPGYVYGKRYYWGQGTQVTVSS”, the “polyreactivity (PSR sort gate)” value was “high polyreactivity”.

On to “QVQLVVSGGGLVQAGGSLRLSCAASGRTFYANAMGWYRQAPGKERELVAAISTGGDGTYYADSVKGRFTISRDNAKNTVYLQMNSLKPEDTADYYCAVRHRASGILYDYWGQGTQVTVSS”, for which the “polyreactivity (PSR sort gate)” value is “low polyreactivity”.

On to “QVQLVVSGGGLVQAGGSLRLSCAASGSIFYFNAMGWYRQAPGKERELVASITSGGSTNYADSVKGRFTISRDNAKTTVYLQLISLKPEDTAVYYFNAYTWGVGSSLDDVGYWGQGTQVTGSS”, for which the “polyreactivity (PSR sort gate)” value is reported as “low polyreactivity”.

For “QVQLVVSGGGLVQAGGSLRLSCAASGSMLYKYAMGWYRQPPGKEREFVAAISSSGGITYYADSVKGRFTISRDNAKNTVYLQMNSLKPEDTAVYYCAARTRSQFGHGYWGQGTQVTVSS”, the “polyreactivity (PSR sort gate)” value was “high polyreactivity”.
